Measured values taken from patent publication US10563171B2, “Method for inducing differentiation of pluripotent stem cells into germ cells” (Kyoto University, priority 2015, dated 2020).

Tests used:
[1] = tested on: iMeLCs; assay: Induction of BTAG positive cells (hPGCLCs) from iMeLCs in floating aggregates; format: cell-based, human; conditions: combination of BMP4, LIF, SCF and EGF changed; FIG. 11A-D
Description: (§1) Initial mesoderm-like cells (iMeLCs) were induced by seeding hiPSCs maintained in StemFit™ in a 12 well plate coated with human plasma fibronectin (Millipore, FC010) at 1.0-2.0×10^5 cells per well in GK15 medium [GMEM containing 15% KSR, 0.1 mM NEAA, 2 mM L-glutamine, 1 mM sodium pyruvate and 0.1 mM 2-mercaptoethanol (Life Technologies)] containing 50 ng/ml activin A, 3 μM CHIR99021 and 10 μM ROCK inhibitor (Y-27632; Wako Pure Chemical Industries). The hiPSCs were induced by seeding in a low-cell-binding V-bottom 96 wellplate (Thermo, 81100574) at 3.0×10^3 cells per well in GK15 added with 1000 U/ml LlF (Millipore, #LIF1005), 200 ng/ml BMP 4,100 ng/ml SCF (R&D Systems, 455-MC), 50 ng/ml EGF (R&D Systems, 236-EG), and 10 μM ROCK inhibitor. For investigation of conditions and induction of iMeLCs or hPGCLC, PD173074 (StemGent, #04-0008) or LDN193189 (StemGent, #04-0074) was respectively added. Other than the above, WNT3A (R&D Systems, 5036-WN) was used instead of CHIR99021, and BMP2 (R&D Systems, 355-BM), BMP7 (R&D Systems, 354-BP), or BMP8A (R&D Systems, 1073-BP) was used instead of BMP4.
(§2) Floating aggregates containing hPGCLCs were separated by treating with 0.05% Trypsin-EDTA/PBS at 37° C. for 10 min. […] The collected cells were suspended in FACS buffer (0.1% BSA in PBS) and analyzed by a flow cytometer (ARIA III; BD Biosciences). […]

[2] = tested on: BTAG 585B1-868 hiPSCs; assay: Induction of iMeLCs from hiPSCs having induction capacity into BTAG positive cells (FACS of BTAG(+) cells); format: cell-based, human; conditions: added during induction of iMeLC; FIG. 10D, 10E
Description: as §1, §2

B1: BMP4: bone morphogenetic 4 (protein, UniProt P12644 293-408, looked up)
Bone morphogenetic protein 4: SPKHHSQRARKKNKNCRRHSLYVDFSDVGWNDWIVAPPGYQAFYCHGDCPFPLADHLNSTNHAIVQTLVNSVNSSIPKACCVPTELSAISMLYLDEYDKVVLKNYQEMVVEGCGCR
- role in induction of BTAG positive cells from iMeLCs [1]: essential
- effect of signaling on iMeLCs induction [2]: acts negatively
